Measured values taken from the supplement of paper PMC10126150.
± gives the standard deviation of the averaged measurements.

Test system: ATP
Assay: switch fluorescence ratio, 500 uM ATP over buffer (Cy3 cluster intensity, sum of 5 cycles each) (fold (ratio)); higher = stronger signal-on switching upon ATP binding; sequences stand for … in TCGTCGGCAGCGTCAGATGTGTATAAGAGACAGTTTTTTTTTTTTTTTTTTTTTTTTT…TC
Conditions: aptamer strand: ATP DNA aptamer (quencher-CACCTGGGGGAGTATTGCGGAGGAAGG + anchor), 100 nM annealed; ATP concentration: 500 uM
Summary of the method: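 Values give the fluorescence ratio for each switch-domain sequence, averaged from per-cluster ratios of summed target-cycle to summed buffer-cycle Cy3 intensity. The Cy3-labelled switching-strand clusters sat on a modified Illumina MiSeq flow-cell, were annealed to 100 nM quencher-labelled ATP aptamer, and were imaged in selection buffer, then after 15 min with 500 uM ATP at 22 °C. Five cycles ran with NaOH stripping and re-annealing between them, and clusters outside 100-1000 RFU were excluded.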
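Also: ATP exposure 15 min at 22 °C before imaging.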

Row | Sequence | switch fluorescence ratio
1 | ACAGCGCGAC | 1.32 ± 0.017
2 | ACAGCGCTTT | 1.03 ± 0.025
3 | ACAGCGGGA | 1.0254 ± 4.6e-06
4 | ACAGCGTGTG | 1.03 ± 0.011
5 | ACAGCTGCTT | 0.981 ± 0.028
6 | ACAGCTGTTT | 0.998 ± 0.027
7 | ACAGGAGAC | 1.0379 ± 0.00024
8 | ACAGGGAGTA | 0.9864 ± 0.003
9 | ACAGGGCGGG | 1.01 ± 0.035
10 | ACAGGGCTAT | 1.02 ± 0.014
11 | ACAGGGGATG | 1.08 ± 0.16
12 | ACAGGGGCAG | 1.02 ± 0.017
13 | ACAGGGGGAG | 0.983 ± 0.024
14 | ACAGGGGTCT | 1.06 ± 0.024
15 | ACAGGGTCG | 0.948 ± 0.025
16 | ACAGGTTAAT | 1.02 ± 0.02
17 | ACAGGTTAGT | 0.989 ± 0.034
18 | ACAGGTTGAA | 0.996 ± 0.036
19 | ACAGGTTTTT | 1.01 ± 0.023
20 | ACAGTAACTT | 1.092 ± 0.0098
21 | ACAGTAGGA | 1.06 ± 0.013
22 | ACAGTATCGG | 1.06 ± 0.013
23 | ACAGTATGGA | 1 ± 0.011

Row | Sequence | switch fluorescence ratio
24 | ACAGTATTCT | 1.047 ± 0.01
25 | ACAGTCGTAG | 1 ± 0.015
26 | ACAGTCTGTT | 1.01 ± 0.048
27 | ACAGTGGGAA | 1.014 ± 0.0044
28 | ACAGTGGGAG | 1.011 ± 0.003
29 | ACAGTGGTCG | 1.06 ± 0.033
30 | ACAGTGTGGT | 1.07 ± 0.031
31 | ACAGTTGCTC | 1.02 ± 0.02
32 | ACATAACGAA | 1.21 ± 0.013
33 | ACATAATATT | 1.06 ± 0.036
34 | ACATACTGCG | 1.323 ± 0.0038
35 | ACATAGAACG | 1.06 ± 0.038
36 | ACATAGCGAA | 1.13 ± 0.026
37 | ACATAGTAAT | 1.001 ± 0.0092
38 | ACATAGTTTT | 0.9994 ± 0.0075
39 | ACATATCCGT | 1.01 ± 0.021
40 | ACATCAAGGG | 1.06 ± 0.055
41 | ACATCCCGTT | 1.05 ± 0.048
42 | ACATCGGCTT | 0.998 ± 0.015
43 | ACATGAATTT | 1 ± 0.029
44 | ACATGACGGG | 1.06 ± 0.015
45 | ACATGCCGGG | 1.03 ± 0.085
46 | ACATGGAGGG | 1.01 ± 0.057

Row | Sequence | switch fluorescence ratio
47 | ACATGGGATT | 1.01 ± 0.043
48 | ACATGGGGAA | 0.994 ± 0.012
49 | ACATGTGGGG | 1.04 ± 0.025
50 | ACATTAAAAA | 1.26 ± 0.013
51 | ACATTAGTTT | 1.013 ± 0.0056
52 | ACATTATGGA | 1.035 ± 0.0081
53 | ACATTATTGT | 0.982 ± 0.011
54 | ACATTATTTT | 1.02 ± 0.025
55 | ACATTGAGCG | 1.03 ± 0.028
56 | ACATTGAGGG | 1.057 ± 0.0028
57 | ACATTGATCG | 1.03 ± 0.017
58 | ACATTGATGG | 1.028 ± 0.00017
59 | ACATTGGCTA | 1 ± 0.035
60 | ACATTGTGTA | 0.9955 ± 0.0068
61 | ACATTGTTAT | 1.07 ± 0.1
62 | ACATTTCAAA | 0.987 ± 0.0069
63 | ACATTTGCCC | 1.069 ± 0.003
64 | ACATTTTCGT | 0.991 ± 0.032
65 | ACCAAACGTG | 1.23 ± 0.055
66 | ACCAAAGAGA | 0.993 ± 0.013
67 | ACCAAGCTTT | 1.04 ± 0.016
68 | ACCAATTTTT | 1.03 ± 0.026
69 | ACCACATATC | 1.1 ± 0.06

Row | Sequence | switch fluorescence ratio
70 | ACCACCAGAA | 1.13 ± 0.02
71 | ACCACGGGCG | 1.09 ± 0.018
72 | ACCAGAGGTA | 1.01 ± 0.014
73 | ACCAGGATGC | 1.225 ± 0.0042
74 | ACCAGGGACG | 1.02 ± 0.073
75 | ACCAGGGCTT | 1.08 ± 0.021
76 | ACCAGGGTGG | 1.03 ± 0.068
77 | ACCAGGTCGT | 1.51 ± 0.05
78 | ACCAGTTATT | 1.08 ± 0.14
79 | ACCATGTATC | 0.998 ± 0.026
80 | ACCATTATTT | 1.03 ± 0.014
81 | ACCATTCAAA | 1 ± 0.021
82 | ACCCAAATCA | 1.04 ± 0.019
83 | ACCCAGACGC | 1.35 ± 0.058
84 | ACCCATGCTT | 1.06 ± 0.013
85 | ACCCCAAATG | 1.124 ± 0.0098
86 | ACCCCATGTT | 1.86 ± 1
87 | ACCCCGGTCG | 1.167 ± 0.0062
88 | ACCCGTTGTT | 1.01 ± 0.039
89 | ACCCTAGGGT | 0.994 ± 0.035
90 | ACCCTCGAGA | 1.06 ± 0.06
91 | ACCCTGGCAA | 1.36 ± 0.41
92 | ACCCTGGTAT | 1.02 ± 0.017

Row | Sequence | switch fluorescence ratio
93 | ACCCTTTTTG | 0.986 ± 0.025
94 | ACCGAATAAT | 1.03 ± 0.019
95 | ACCGACGGGA | 2.72 ± 2
96 | ACCGACTTGC | 1.09 ± 0.018
97 | ACCGATGCAC | 4.12 ± 1.2
98 | ACCGCCGTCA | 1.08 ± 0.012
99 | ACCGCGTTTT | 1.03 ± 0.041
100 | ACCGCTTGTA | 1.05 ± 0.052
101 | ACCGGAGCGG | 1.61 ± 0.042
102 | ACCGGATATA | 1.006 ± 0.0081
103 | ACCGGATCGT | 0.9828 ± 0.0035
104 | ACCGGCGAGC | 1.01 ± 0.016
105 | ACCGGCGTAG | 1 ± 0.016
106 | ACCGGCTGCG | 1.08 ± 0.08
107 | ACCGGGCCGA | 1.04 ± 0.016
108 | ACCGGGCTTT | 0.988 ± 0.024
109 | ACCGGGGATT | 1 ± 0.018
110 | ACCGGGGCTA | 1.03 ± 0.031
111 | ACCGGGGTGG | 0.991 ± 0.05
112 | ACCGGGGTTT | 1 ± 0.051
113 | ACCGGTGCTG | 0.98 ± 0.042
114 | ACCGGTTAGC | 1.02 ± 0.015
115 | ACCGTAAACG | 0.999 ± 0.12

Row | Sequence | switch fluorescence ratio
116 | ACCGTGTATG | 1.01 ± 0.027
117 | ACCGTGTTAT | 0.9583 ± 0.0037
118 | ACCTAAAGGA | 1.02 ± 0.016
119 | ACCTAATTAG | 1.06 ± 0.073
120 | ACCTCGAAGA | 1.03 ± 0.014
121 | ACCTGCTTTT | 1.05 ± 0.051
122 | ACCTGGCCTG | 0.999 ± 0.021
123 | ACCTGGCGTA | 1.04 ± 0.0016
124 | ACCTGGTCGT | 1.05 ± 0.048
125 | ACCTGTAATA | 1.05 ± 0.0062
126 | ACCTGTATA | 1.054 ± 0.0037
127 | ACCTTAGTAT | 1.02 ± 0.022
128 | ACCTTATCCT | 1.16 ± 0.012
129 | ACCTTTTTCG | 1.07 ± 0.0096
130 | ACGAAAATGG | 1.05 ± 0.062
131 | ACGAAAGGGA | 1.11 ± 0.029
132 | ACGAAATCGG | 1.03 ± 0.018
133 | ACGAAATGAC | 1.68 ± 0.037
134 | ACGAAGGGGT | 1.03 ± 0.021
135 | ACGACAGCAG | 1.39 ± 0.033
136 | ACGACCGACA | 1.95 ± 0.29
137 | ACGACCGGGT | 1.2 ± 0.037
138 | ACGACTGAAG | 1.014 ± 0.0015

Row | Sequence | switch fluorescence ratio
139 | ACGACTTCTT | 0.989 ± 0.019
140 | ACGAGAGGGG | 0.996 ± 0.048
141 | ACGAGTTACT | 1.1 ± 0.013
142 | ACGATAACTT | 1.21 ± 0.034
143 | ACGATACTTT | 1.37 ± 0.015
144 | ACGATCTCCA | 1.035 ± 0.005
145 | ACGATGGGGA | 1.04 ± 0.034
146 | ACGATGGTTT | 0.984 ± 0.04
147 | ACGATGTAAA | 0.9574 ± 0.0042
148 | ACGATTCAAG | 1.02 ± 0.061
149 | ACGATTGGTT | 1.005 ± 0.01
150 | ACGCACTAAG | 1.61 ± 0.026
151 | ACGCAGGCTT | 1.05 ± 0.011
152 | ACGCAGGTAT | 1.04 ± 0.061
153 | ACGCAGTATG | 1.03 ± 0.031
154 | ACGCCGGGCT | 1.07 ± 0.054
155 | ACGCGACGGA | 1.07 ± 0.079
156 | ACGCGCTTTA | 0.99871 ± 0.00033
157 | ACGCGGAGTA | 0.997 ± 0.038
